This is an account of results in patent publication US20070135998A1.

The assay addresses VLA1 I-domain protein (human) (UniProt P56199). The assay is described as follows: KinExA, solution phase affinity, scFv.
Sequence of UniProt P56199 (P56199 173-364 limits assumed): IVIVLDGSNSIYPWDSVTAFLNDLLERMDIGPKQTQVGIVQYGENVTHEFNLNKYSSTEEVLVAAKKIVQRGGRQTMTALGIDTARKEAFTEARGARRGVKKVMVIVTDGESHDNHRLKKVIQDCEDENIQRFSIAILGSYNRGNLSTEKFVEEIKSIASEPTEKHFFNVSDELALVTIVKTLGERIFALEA
On to AQC2 single chain Fv (original) (scFv), for which the Kd worked out at 0.025 µM.
In the case of “AQC2 single chain Fv mutant, heavy chain D106N (scFv)” it was 0.067 µM; in that of “AQC2 single chain Fv mutant, heavy chain K64D (scFv)”, 0.0063 µM.
Regarding “AQC2 single chain Fv mutant, heavy chain K64E (scFv)”, the Kd stood at 0.038 µM.
The same measure for “AQC2 single chain Fv mutant, heavy chain K64N (scFv)”: 0.0041 µM.
The same measure for “AQC2 single chain Fv mutant, heavy chain K64Q (scFv)”: 0.012 µM; for “AQC2 single chain Fv mutant, heavy chain L60D (scFv)”: 0.021 µM.
The same measure for “AQC2 single chain Fv mutant, heavy chain R31Q (scFv)”: 0.0082 µM; for “AQC2 single chain Fv mutant, heavy chain S35N (scFv)”: 0.039 µM; for “AQC2 single chain Fv mutant, heavy chain S35Q (scFv)”: 0.037 µM.
With “AQC2 single chain Fv mutant, heavy chain T50V (scFv)”, the Kd was 0.014 µM.
In the case of “AQC2 single chain Fv mutant, heavy chain Y32F (scFv)” it was 0.034 µM; in that of “AQC2 single chain Fv mutant, light chain H31R (scFv)”, 0.031 µM.
Take “AQC2 single chain Fv mutant, light chain N30V (scFv)”: the Kd was determined as 0.0089 µM.
“AQC2 single chain Fv mutant, light chain N52H (scFv)”: the Kd came out at 0.043 µM.
The same measure for “AQC2 single chain Fv mutant, light chain N52K (scFv)”: 0.049 µM; for “AQC2 single chain Fv mutant, light chain N52R (scFv)”: 0.017 µM.
